# System: fragments of sample DNA (genomic DNA of TA100 strain)
# Assay: Error reduction by single-strand-specific nuclease treatment of DNA fragments (DMSO-exposed library)
# Format: biochemical, Salmonella typhimurium
# Description: From DNA derived from the DMSO-exposed cells or the 3-MC-exposed cells, a plurality of samples each of which was to give 60 ng or 100 ng of DNA were prepared, and the samples were each fragmented into pieces having a length of approximately 350 bp on average by using a DNA Shearing System ME220. The fragments of each sample were divided into two groups. For the group without nuclease treatment (nontreatment group), the DNA fragments were suspended in Resuspension buffer attached to the TruSeq for End Repair in the subsequent step in accordance with the recommended protocol to afford 60 μL of eluate. For the group with nuclease treatment (treatment group), the DNA fragments were purified through steps of adsorbing on Sample Purification Beads attached to the TruSeq (hereinafter, also expressed as beads, simply), washing twice with 80% ethanol water, and drying in accordance with the recommended protocol. In the subsequent elution operation, the beads were suspended in distilled water (DW, produced by NIPPON GENE CO., LTD.) to afford 30 μL of DNA eluate containing DNA fragments.
# S1 nuclease (Promega Corporation, catalog No.: M5761), Mung Bean Nuclease (MBN) (Takara Bio Inc., catalog No.: 2420A), or RecJf (New England Biolabs, catalog No.: M0264L) was used as the single-strand-specific nuclease. The activity values (numbers of units) of the enzymes were defined as follows. • S1 nuclease: an enzymatic activity such that 1 μg of acid-soluble substance is generated per minute at 37° C. in a mixed solution of 30 mM sodium acetate (pH 4.6, 25° C.), 50 mM NaCl, 1 mM ZnCl2, 5% glycerol, and 0.5 mg/mL denatured calf thymus DNA was defined as 1 U. • MBN: an enzymatic activity such that 1 μg of acid-soluble decomposition product is generated per minute at 37° C. and pH 5.0 with thermally denatured calf thymus DNA as a substrate was defined as 1 U. • RecJf: an amount of the enzyme necessary for generating 0.5 ng of deoxyribonucleotide soluble in trichloroacetic acid per minute at 37° C. in 50 μL of whole reaction solution (containing 1×NE Buffer 2 and 1.5 μg of sonicated [^3H]-labeled single-stranded E. coli DNA) was defined as 1 U.
# To the DNA eluate obtained in I), 4 μL of 10× Reaction Buffer attached to the S1 nuclease was added. The S1 nuclease was appropriately diluted with 1× Reaction Buffer, 1, 3, 10, 30, 100, or 300 U thereof was added to the DNA eluate, and DW was added thereto to a total volume of 40 μL. For the sample to which 1000 U of the S1 nuclease was to be added, 4.6 μL of 10× Reaction Buffer was added to 30 μL of the DNA eluate obtained by beads purification, and 12 μL of the stock solution of the S1 nuclease was added thereto to a total volume of 46 μL. Each reaction solution with the S1 nuclease was incubated at 30° C. for 30 minutes. Assuming that the whole amount of DNA (60 ng) present at the beginning of library preparation existed in each reaction solution, the numbers of units of the S1 nuclease per 1 ng of DNA were 0.02, 0.05, 0.17, 0.50, 1.67, 5.00, and 16.7 U/ng. For inactivation of the S1 nuclease in each reaction solution, 3 μL of 0.5 M EDTA (pH 8.0) (produced by NIPPON GENE CO., LTD.) was added, and the resultant was incubated at 70° C. for 10 minutes. To purify DNA from the inactivated reaction solution, beads attached to the TruSeq in an amount equal to that of the reaction solution were added and a purification operation was carried out in accordance with the recommended protocol, and the resultant was suspended in Resuspension buffer attached to the TruSeq to afford 60 μL of eluate (S1 nuclease treatment group). […]
# To the DNA eluate obtained in I), 5 μL of 10×NE Buffer 2 attached to the RecJf was added. The RecJf was appropriately diluted with 1×NE Buffer 2, and 3, 10, 30, or 100 units thereof was added to the DNA eluate to a total volume of 50 μL. Each reaction solution with the RecJf was stirred, and incubated at 37° C. for 60 minutes. […]
molecule,measurement,setting,value
"S1 nuclease: single-strand-specific endonuclease (Promega Corporation, catalog No.: M5761) (protein, UniProt P24021 21-287, looked up) Nuclease S1: WGNLGHETVAYIAQSFVASSTESFCQNILGDDSTSYLANVATWADTYKYTDAGEFSKPYHFIDAQDNPPQSCGVDYDRDCGSAGCSISAIQNYTNILLESPNGSEALNALKFVVHIIGDIHQPLHDENLEAGGNGIDVTYDGETTNLHHIWDTNMPEEAAGGYSLSVAKTYADLLTERIKTGTYSSKKDSWTDGIDIKDPVSTSMIWAADANTYVCSTVLDDGLAYINSTDLSGEYYDKSQPVFEELIAKAGYRLAAWLDLIASQPS","Error reduction rate, GC to CG",S1 nuclease 0.02 U/ng,30.4%
same,"Error reduction rate, GC to TA",S1 nuclease 0.02 U/ng DNA in reaction solution,52.8%
same,"Error reduction rate, GC to CG",S1 nuclease 0.05 U/ng,50.6%
same,"Error reduction rate, GC to TA",S1 nuclease 0.05 U/ng,35.3%
same,"Error reduction rate, GC to CG",S1 nuclease 0.17 U/ng,84.9%
same,"Error reduction rate, GC to TA",S1 nuclease 0.17 U/ng,83.1%
same,"Error reduction rate, GC to CG",S1 nuclease 0.50 U/ng,87.5%
same,"Error reduction rate, GC to TA",S1 nuclease 0.50 U/ng,69.9%
same,"Error reduction rate, GC to CG",S1 nuclease 1.67 U/ng,86.0%
same,"Error reduction rate, GC to TA",S1 nuclease 1.67 U/ng,81.7%
same,"Error reduction rate, GC to CG",S1 nuclease 5.00 U/ng,98.3%
same,"Error reduction rate, GC to TA",S1 nuclease 5.00 U/ng,84.5%
same,"Error reduction rate, GC to CG",S1 nuclease 16.7 U/ng,98.1%
same,"Error reduction rate, GC to TA",S1 nuclease 16.7 U/ng,79.6%

# — US20220396825A1, “METHOD FOR PREPARING […]” (KAO CORPORATION, priority 2019, published 2022)
